Here are results for four molecules from paper PMC10433963 (2023).

A word on the Kd: it is the equilibrium constant for the complex coming apart.

This assay deals with ^H7-SUMOClpC1^FLAG (recombinant ClpC1) (M. smegmatis, UniProt A0R574 1-848). In words: MST; 1 mM ATPγS; Kapp from Hill fit.
^H7-SUMOClpC1^FLAG (recombinant ClpC1), sequence (A0R574 whole entry): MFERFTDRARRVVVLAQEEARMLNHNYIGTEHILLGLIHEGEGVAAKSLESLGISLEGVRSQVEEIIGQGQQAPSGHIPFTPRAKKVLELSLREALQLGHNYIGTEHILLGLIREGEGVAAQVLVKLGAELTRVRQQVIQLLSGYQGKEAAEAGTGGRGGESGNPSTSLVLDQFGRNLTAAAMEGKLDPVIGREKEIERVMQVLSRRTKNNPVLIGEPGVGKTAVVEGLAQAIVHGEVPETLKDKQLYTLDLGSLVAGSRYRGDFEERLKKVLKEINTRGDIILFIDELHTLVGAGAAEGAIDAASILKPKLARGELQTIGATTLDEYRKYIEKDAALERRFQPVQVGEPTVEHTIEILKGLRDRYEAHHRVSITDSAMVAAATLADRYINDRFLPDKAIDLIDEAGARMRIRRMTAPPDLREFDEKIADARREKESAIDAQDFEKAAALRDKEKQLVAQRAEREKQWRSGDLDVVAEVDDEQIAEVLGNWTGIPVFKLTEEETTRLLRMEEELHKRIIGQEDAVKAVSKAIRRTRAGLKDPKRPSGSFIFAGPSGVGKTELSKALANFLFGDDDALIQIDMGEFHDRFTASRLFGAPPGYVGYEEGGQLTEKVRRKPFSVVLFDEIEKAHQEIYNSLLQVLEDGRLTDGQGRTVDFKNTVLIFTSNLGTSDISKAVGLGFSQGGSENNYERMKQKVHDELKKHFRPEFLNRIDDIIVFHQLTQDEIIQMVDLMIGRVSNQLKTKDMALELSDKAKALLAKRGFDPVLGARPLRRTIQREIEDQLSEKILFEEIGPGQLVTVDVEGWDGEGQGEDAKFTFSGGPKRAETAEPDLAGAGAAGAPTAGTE

B1: XRE (recombinant) (natural protein)
chain: MAQDENLAAVVSNAAQDIGSFIRAQREAAQVSVRQLAEKAGVSNPYLSQIERGLRKPSADVLNQIAKALRVSAEVLYVRAGILEPSEPSEVRDAIVNDVSITERQKQVLLDIYTSFRQQNEAAGEPEGAAVIPSPDEEPATD
Regarding B1, the dissociation constant (Kd) turned out to be 4.6 µM.

B2: GntR (recombinant) (natural protein)
chain: MSPTPDPQSAVPAREIAYRIVYDAIASGRYLPGQWIREDEVTAEAGVSRTPLREALQRLQSEGLVQLVRHRGALVVGWTSADLDDLFDIRVALETYGARRAAQRRGGAQLESLQKLCASMDEILPAAQEPELQQLGHLCIDFHRGIHEAADNRKLLSVMPMVLAPPFVSEAFHHHTRLELEQAFAHHRELVEAIAIGDEDWAEGVMRAHLRHGRRSLRRMERHLPLMTSHDAEPAVTDTGQPETTSSDPVHE
As for B2, the dissociation constant (Kd) amounted to 3.3 µM.

B3: DnaJ1 (recombinant) (natural protein)
chain: MAQREWVEKDFYKELGVSSDASADEIKKAYRKLAAELHPDRNSDPGAAERFKAVSEANSVLSDPAKRKEYDETRRLFAGGFGRRFNQGGGGFGGGFGSDGVEFNLGDLFDAAGQTGGANIGDLFGGLFGRGPQQRPSRPRRGNDLETETELSFLEATKGVAMPLRLTSPAPCTNCHGSGARPGTSPKVCPSCNGSGVISRNQGAFGFSEPCTECRGSGSIIEHPCQECRGTGVTTRTRTINVRIPPGVEDGQRIRLAGQGEAGLRGAPSGDLYVTVHVRPDKVFGRDGDDLTVTVPVSFHELALGTTLSVPTLDGKVGVRVPKGTSDGRILRVRGRGVPKRSGGHGDLLVTVKVAVPPNLEGEAAEALEAYAKAERASGFDPRAGWAGNV
In the case of B3, the Kd was found to be 6.4 µM.

B4: Magnesium chelatase (recombinant) (natural protein)
chain: MVSQPKDLPRTVGELRASGHRERGVKAEIRENLLAALAERRDVWPGILGFEDTVIPQLERALIAGHDVVLLGERGQGKTRLLRALTGLLDEWTPVIAGSELGEHPYSPITPESIRRAADSGDDLPVEWRHRSERYTEKLATPDTSVADLVGDIDPIKVAEGRSLGDPETIAYGLIPRAHRGIVAVNELPDLAERIQVAMLNVMEERDIQVRGYTLRLPLDVLVVASANPEDYTNRGRIITPLKDRFGAEIRTHYPLELEAEVGVIRQEAELAAEVPEYLLAVLARFARNLRESNSIDQRSGVSARFAIAAAETVAASARHRAAILGEDDPVARVVDLGTVIDVLRGKLEFETGEEGREQAVLEHLLRRATADTAQRLLGGIDVGPLVAAIEEGSPVTTGERVSAKDVVAALPDLPAIDAIAHRLNAVSVGQRAAAIELALEALYLAKRIDKVSGEGETVYG
Consider B4, for which the Kd stood at 6.7 µM.
